In patent US20190119389A1 (POTENZA THERAPEUTICS, published 2019):
Numbering of substitutions follows the chain as printed.

What was measured:
Mouse NRP-1 His = target: T1, Mouse NRP-1 His (mouse, UniProt P97333 22-856); assay: BLI ForteBio, IgG1 N297A on AHQ sensor, 100 nM monomeric antigen, 1:1 fit
T1 construct: Recombinant monomeric protein; also called mNRP-1; not shown: His tag

Human NRP-1 His = target: T2, Human NRP-1 His (human, UniProt O14786 22-856); assay: as above
T2 construct: Recombinant monomeric protein; Biotinylated in the MSD-SET assay; also called hNRP-1; not shown: His tag

Cyno NRP-1 His = target: T3, Cyno NRP-1 His (cynomolgus monkey, UniProt O14786 22-856 (human entry), limits assumed); assay: as above
T3 construct: Recombinant monomeric protein; also called cynomolgus monkey NRP-1-His; cNRP-1; not shown: His tag
T3 chain: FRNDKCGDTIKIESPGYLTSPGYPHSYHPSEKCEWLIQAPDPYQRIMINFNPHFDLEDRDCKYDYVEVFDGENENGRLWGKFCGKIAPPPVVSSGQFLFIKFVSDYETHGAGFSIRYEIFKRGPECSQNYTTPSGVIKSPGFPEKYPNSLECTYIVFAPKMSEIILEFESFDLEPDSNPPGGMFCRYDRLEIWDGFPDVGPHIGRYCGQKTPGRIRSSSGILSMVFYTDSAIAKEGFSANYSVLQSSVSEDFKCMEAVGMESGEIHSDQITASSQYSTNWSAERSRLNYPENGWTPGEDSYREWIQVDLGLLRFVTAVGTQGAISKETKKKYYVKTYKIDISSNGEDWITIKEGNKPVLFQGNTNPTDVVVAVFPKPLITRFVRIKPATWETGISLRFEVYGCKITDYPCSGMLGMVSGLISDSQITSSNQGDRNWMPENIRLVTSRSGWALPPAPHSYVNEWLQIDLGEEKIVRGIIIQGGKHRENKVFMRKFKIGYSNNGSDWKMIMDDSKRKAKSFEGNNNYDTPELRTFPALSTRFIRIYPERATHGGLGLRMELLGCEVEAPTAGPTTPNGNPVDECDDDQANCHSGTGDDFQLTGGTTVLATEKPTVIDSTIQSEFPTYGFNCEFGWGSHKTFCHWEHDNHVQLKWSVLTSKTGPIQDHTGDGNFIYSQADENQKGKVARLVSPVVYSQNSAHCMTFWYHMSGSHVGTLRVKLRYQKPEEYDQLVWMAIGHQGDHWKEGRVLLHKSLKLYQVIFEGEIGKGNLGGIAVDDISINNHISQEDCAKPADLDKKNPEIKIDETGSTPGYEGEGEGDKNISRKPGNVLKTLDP

recombinant human NRP-1 [1] = target: T4, recombinant human NRP-1 (human, UniProt O14786 22-856, limits assumed); assay: blocking ELISA: SEMA3A coated, biotinylated human NRP-1 preincubated with IgG1 antibody; competitor SEMA3A
T4 construct: also called biotinylated human NRP-1

[2] = target: T5, monomeric mutant NRP1 b1 K351N (human, UniProt O14786 273-427, limits assumed); assay: BLI Octet, MAB12 captured on anti-human Fc sensors, monomeric mutant NRP1 b1
T5 construct: Single point mutant of the human NRP1 b1 domain
T5 chain: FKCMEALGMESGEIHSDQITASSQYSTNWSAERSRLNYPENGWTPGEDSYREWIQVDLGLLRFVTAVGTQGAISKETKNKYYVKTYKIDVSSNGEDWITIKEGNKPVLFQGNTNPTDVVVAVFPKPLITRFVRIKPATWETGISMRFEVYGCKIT

[3] = target: T6, monomeric mutant NRP1 b1 E412H (human, UniProt O14786 273-427, limits assumed); assay: as above
T6 construct: Single point mutant of the human NRP1 b1 domain
T6 chain: T5 chain with N79K, E140H

[4] = target: T7, monomeric mutant NRP1 b1 D320A (human, UniProt O14786 273-427, limits assumed); assay: as above
T7 construct: Single point mutant of the human NRP1 b1 domain
T7 chain: T5 chain with D48A, N79K

[5] = target: T8, monomeric mutant NRP1 b1 Y354A (human, UniProt O14786 273-427, limits assumed); assay: as above
T8 construct: Single point mutant of the human NRP1 b1 domain
T8 chain: T5 chain with N79K, Y82A

[6] = target: T9, monomeric mutant NRP1 b1 K352G (human, UniProt O14786 273-427, limits assumed); assay: as above
T9 construct: Single point mutant of the human NRP1 b1 domain
T9 chain: T5 chain with N79K, K80G

[7] = target: T10, monomeric mutant NRP1 b1 P317A (human, UniProt O14786 273-427, limits assumed); assay: as above
T10 construct: Single point mutant of the human NRP1 b1 domain
T10 chain: T5 chain with P45A, N79K

[8] = target: T11, monomeric mutant NRP1 b1 Y353A (human, UniProt O14786 273-427, limits assumed); assay: as above
T11 construct: Single point mutant of the human NRP1 b1 domain
T11 chain: T5 chain with N79K, Y81A

[9] = target: T12, monomeric mutant NRP1 b1 T413A (human, UniProt O14786 273-427); assay: as above
T12 chain: T5 chain with N79K, T141A

[10] = target: T13, monomeric mutant NRP1 b1 T349A (human, UniProt O14786 273-427, limits assumed); assay: as above
T13 construct: Single point mutant of the human NRP1 b1 domain
T13 chain: T5 chain with T77A, N79K

recombinant human NRP-1 [11] = target: T4, recombinant human NRP-1; assay: blocking ELISA: human NRP-1 coated, VEGFA added with IgG1 antibody; competitor VEGFA

T4 sequence (O14786 22-856 V179A limits assumed): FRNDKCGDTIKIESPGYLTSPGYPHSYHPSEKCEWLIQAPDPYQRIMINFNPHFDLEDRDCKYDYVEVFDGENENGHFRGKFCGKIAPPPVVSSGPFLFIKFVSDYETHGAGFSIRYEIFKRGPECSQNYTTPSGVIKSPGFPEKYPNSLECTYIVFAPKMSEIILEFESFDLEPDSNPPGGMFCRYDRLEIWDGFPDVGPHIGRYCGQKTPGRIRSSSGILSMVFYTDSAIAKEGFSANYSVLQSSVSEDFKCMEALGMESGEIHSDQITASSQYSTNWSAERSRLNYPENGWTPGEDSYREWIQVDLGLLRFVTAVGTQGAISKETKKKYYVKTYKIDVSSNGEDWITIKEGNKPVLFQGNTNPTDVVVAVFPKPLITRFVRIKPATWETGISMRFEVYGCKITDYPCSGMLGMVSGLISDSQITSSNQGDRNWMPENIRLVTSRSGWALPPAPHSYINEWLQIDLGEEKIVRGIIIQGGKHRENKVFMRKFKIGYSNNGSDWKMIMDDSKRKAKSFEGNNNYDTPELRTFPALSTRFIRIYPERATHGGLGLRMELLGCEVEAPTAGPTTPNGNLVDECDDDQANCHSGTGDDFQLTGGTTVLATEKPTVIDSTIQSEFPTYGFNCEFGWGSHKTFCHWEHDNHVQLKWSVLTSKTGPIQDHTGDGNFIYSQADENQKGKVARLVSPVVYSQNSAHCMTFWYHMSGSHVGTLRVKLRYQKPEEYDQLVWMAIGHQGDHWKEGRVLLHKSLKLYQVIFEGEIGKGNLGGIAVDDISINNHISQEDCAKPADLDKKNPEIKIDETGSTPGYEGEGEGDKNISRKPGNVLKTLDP
T2 sequence (O14786 22-856 V179A limits assumed): as above
T1 sequence (P97333 22-856 limits assumed): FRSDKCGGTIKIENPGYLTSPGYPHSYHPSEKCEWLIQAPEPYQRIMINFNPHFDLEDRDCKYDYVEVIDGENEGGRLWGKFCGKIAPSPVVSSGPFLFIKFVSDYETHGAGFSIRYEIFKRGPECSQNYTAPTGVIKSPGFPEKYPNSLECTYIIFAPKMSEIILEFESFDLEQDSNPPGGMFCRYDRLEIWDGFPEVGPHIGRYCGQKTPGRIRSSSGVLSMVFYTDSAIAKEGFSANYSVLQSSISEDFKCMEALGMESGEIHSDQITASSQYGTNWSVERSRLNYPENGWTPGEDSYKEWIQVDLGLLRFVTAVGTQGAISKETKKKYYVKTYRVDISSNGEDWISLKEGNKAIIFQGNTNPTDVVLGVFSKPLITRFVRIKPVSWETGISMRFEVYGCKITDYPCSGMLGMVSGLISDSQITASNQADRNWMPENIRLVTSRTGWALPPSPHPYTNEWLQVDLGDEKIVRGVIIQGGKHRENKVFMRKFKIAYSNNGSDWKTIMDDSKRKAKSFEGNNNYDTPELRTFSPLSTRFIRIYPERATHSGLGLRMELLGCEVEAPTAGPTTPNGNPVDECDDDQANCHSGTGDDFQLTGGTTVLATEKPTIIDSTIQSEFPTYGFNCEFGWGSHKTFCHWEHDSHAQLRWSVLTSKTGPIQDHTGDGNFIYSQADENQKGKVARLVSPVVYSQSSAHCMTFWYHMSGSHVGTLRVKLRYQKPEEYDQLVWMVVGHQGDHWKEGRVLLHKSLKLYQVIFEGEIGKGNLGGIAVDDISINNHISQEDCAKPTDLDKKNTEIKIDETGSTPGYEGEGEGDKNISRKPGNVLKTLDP

B1: MAB12 (antibody, V domains shown)
VH: EVQLLESGGGLVQPGGSLRLSCAASGFTFSSVAMVWVRQAPGKGLEWVSAISGSGGATYYADSVEGRFTISRDNSKNTLYLQMNSLRAEDTAVYYCAKDPGYDSSRYYYSNYGMDVWGQGTTVTVSS
VL: DIQMTQSPSSLSASVGDRVTITCRASQSISSYLNWYQQKPGKAPKLLIYGASSLQSGVPSRFSGSGSGTDFTLTISSLQPEDFATYYCQQTYSLYTFGGGTKVEIK
B1 was tested, and the Kd (Mouse NRP-1 His) was 0.44 nM, the Kd (Human NRP-1 His) was 0.481 nM and the Kd (Cyno NRP-1 His) was 0.469 nM. For the same binder, the IC50 (recombinant human NRP-1 [1]) was 0.8 nM, the binding result [2] was “no binding” and the binding result [3] was “no binding”. B1: binds [4]; binds [5]; binds [6]. B1: binds [7]; binds [8]; binds [9]. For the same binder, the binding result [10] was “binds” and the IC50 (recombinant human NRP-1 [11]) was 6 nM.
